Substrate in the series: Nc1ncnc2c1ncn2[C@@H]1O[C@H](COP(=O)(O)OP(=O)(O)OP(=O)(O)O)[C@@H](O)[C@H]1O
Put plainly: ATPase assay. Particulars: Mg-ATP. The series is classed as biochemical, Saccharomyces cerevisiae.

The mark [1] stands for this setting: no cluster, table prints the error as ± 5.3.

B1: yeast Atm1p (Saccharomyces cerevisiae S288C) (protein)
chain: SPVIFTVSKLSTQRPLLFNSAVNLWNQAQKDITHKKSVEQFSSAPKVKTQVKKTSKAPTLSELKILKDLFRYIWPKGNNKVRIRVLIALGLLISAKILNVQVPFFFKQTIDSMNIAWDDPTVALPAAIGLTILCYGVARFGSVLFGELRNAVFAKVAQNAIRTVSLQTFQHLMKLDLGWHLSRQTGGLTRAMDRGTKGISQVLTAMVFHIIPISFEISVVCGILTYQFGASFAAITFSTMLLYSIFTIKTTAWRTHFRRDANKADNKAASVALDSLINFEAVKYFNNEKYLADKYNGSLMNYRDSQIKVSQSLAFLNSGQNLIFTTALTAMMYMGCTGVIGGNLTVGDLVLINQLVFQLSVPLNFLGSVYRDLKQSLIDMETLFKLRKNEVKIKNAERPLMLPENVPYDITFENVTFGYHPDRKILKNASFTIPAGWKTAIVGSSGSGKSTILKLVFRFYDPESGRILINGRDIKEYDIDALRKVIGVVPQDTPLFNDTIWENVKFGRIDATDEEVITVVEKAQLAPLIKKLPQGFDTIVGERGLMISGGEKQRLAIARVLLKNARIMFFDEATSALDTHTEQALLRTIRDNFTSGSRTSVYIAHRLRTIADADKIIVLDNGRVREEGKHLELLAMPGSLYRELWTIQEDLDHLENELKDQQEL
What is called Km is the substrate concentration at which the rate is half of its maximum. Broadly, the kcat is the maximal rate divided by the concentration of active sites. Consider B1, for which, under setting [1], the Michaelis constant (Km) was found to be 54.6 ± 0.4 µM and the kcat was found to be 0.0322 ± 0.0005 s⁻¹.

B2: yeast Atm1p (Saccharomyces cerevisiae S288C; R284E) (protein)
chain: SPVIFTVSKLSTQRPLLFNSAVNLWNQAQKDITHKKSVEQFSSAPKVKTQVKKTSKAPTLSELKILKDLFRYIWPKGNNKVRIRVLIALGLLISAKILNVQVPFFFKQTIDSMNIAWDDPTVALPAAIGLTILCYGVARFGSVLFGELRNAVFAKVAQNAIRTVSLQTFQHLMKLDLGWHLSRQTGGLTRAMDRGTKGISQVLTAMVFHIIPISFEISVVCGILTYQFGASFAAITFSTMLLYSIFTIKTTAWRTHFERDANKADNKAASVALDSLINFEAVKYFNNEKYLADKYNGSLMNYRDSQIKVSQSLAFLNSGQNLIFTTALTAMMYMGCTGVIGGNLTVGDLVLINQLVFQLSVPLNFLGSVYRDLKQSLIDMETLFKLRKNEVKIKNAERPLMLPENVPYDITFENVTFGYHPDRKILKNASFTIPAGWKTAIVGSSGSGKSTILKLVFRFYDPESGRILINGRDIKEYDIDALRKVIGVVPQDTPLFNDTIWENVKFGRIDATDEEVITVVEKAQLAPLIKKLPQGFDTIVGERGLMISGGEKQRLAIARVLLKNARIMFFDEATSALDTHTEQALLRTIRDNFTSGSRTSVYIAHRLRTIADADKIIVLDNGRVREEGKHLELLAMPGSLYRELWTIQEDLDHLENELKDQQEL
B2: the Km (from the cluster-activation fit, table title prints R48E, column R284E) was determined as 55.0 ± 16.5 µM.

Source of the values: article PMC4052440.
